B1: Protein naked cuticle (Drosophila melanogaster (Fruit fly)), Q9VVV9 (parent)
chain: MAGNIVKWWKHKILGGYKQFSVQECTTDSEELMYHQVRASSSCSAPPDLLLVSERDNNIQLRSPVVNIITTPPGNASGAGSKQQSHHQTNHHSSGRSHPGHTAHPQDVSSGGSHSKHLRISSTSNGKHGKYSNMQQQLPQDEDVVDAAATMQQQQHTGHAHSRHLHHHKEERIRLEEFTCDVSVEGGKSSQPLQFSFTFYDLDGHHGKITKDDIVGIVYTIYESIGKSVVVPHCGSKTINVRLTVSPEGKSKSQPVVPVPVAAGFSSSHASKLKKLPTGLAAMSKPLAGGGVGSGGASALTTSAGNRRQHRYRPRKLIKSDDEDDDSNSEKEKDAAHAPAADQPSGSGTKATGKSHHHQSQSARYHQKNNSRAEQCCTEQNTPDNGHNTYENMLNLKCCKPEVDQVDCPSHRQHHQSHPNHQMRQQDIYMKQATQRVKMLRRARKQKYQDHCLETRQRSLSVGNDSACPNRHLQLQQPPVGHPQPQSLNHKSASGSPPLGVGGGGDMMLDGVQLRQPRPHSLTPHQHQQQNQQQQQQQRKSAECWKSALNRNDLISIIRESMEKNRLCFQLNGKPQANVSPIRQPAAQQQPQQQQRQRCNTGSKIPTLITNHSPVAQQSPLSCSPPTAEPTTPSIPAAPPAIEVNGQQHHPTHPTHPSHHNHHEHPQPHIPIYHQQLAINPAVLAAQQTHNTAHNKLNLCGYDSFLHATICGGGAAAHSPPATPSNVATVQPIPKKSQKNLLQGYQRLEQSQQQQQQQRSSKDYKNYGNLIYAKLSEQLQQKDREQRRQRHKQQQHQMLQDQPKDASRSEQRPPTSNSSSAGSKIYGDAVECAHLLASEEEDLPPSPQLTSTPSKVVSTDTLIDLNDDVGEAVAEAVTEGGKQSLEAEESGQQVEVELDTSASSSMIHRYVHEHIHHHYHHFKEQQDV

Variants of: B1
Conditions: with dsh_drome dsh

effect of a mutation on the interaction | Variant
decreasing interaction | D213V
decreasing interaction | D201A
